Measurements reported in patent publication US20100189695A1, “IRAK-1 AS REGULATOR OF DISEASES AND DISORDERS” (priority 2008, published 2010).

How the values were obtained:
NFAT [1] = test: Co-immunoprecipitation of Flag-IRAK-1 constructs with NFAT in transfected Hela cells; assay type: binding, human; conditions: anti-Flag IP, anti-NFAT Western blot
Protocol: To further delineate which part of IRAK-1 is involved in its interaction with NFAT, experiments were performed using full-length IRAK-1 and a C-terminally truncated form (IRAK-1ΔC—see FIG. 1). Specifically, Hela cells were transfected with IRAK-1 encoding plasmids that express either the full length wild type human IRAK-1 protein or a truncated version of IRAK-1 with deletion of the C terminal region (amino acids 548 to 712 are deleted). Equal amount of cell lysates were harvested from the transfected cells and used to perform co-immunoprecipitation assays with an anti-Flag antibody. Immunoprecipitated proteins were resolved by electrophoresis, and the co-immunoprecipitated proteins were subjected to Western blot analyses using an anti-NFAT antibody.

NFAT [2] = test: NFAT responsive element luciferase reporter assay in transfected Hela cells; assay type: cell-based, human
Source text: NFAT family transcription factors play critical roles in the pathogenesis of cardiovascular diseases, including hypertension and atherosclerosis. […] First, human Hela cells were trasfected with either empty vector plasmid or wild type IRAK-1 expression plasmid together with a NFAT responsive element-containing luciferase reporter plasmid. […] Subsequently, plasmids that express mutated IRAK-1 molecules (D340N, C203S, T113I, mutations which are present in human patients with cardiovascular diseases) have been generated.
Further experiments were performed to ask whether the C-terminal domain of IRAK-1 is involved in facilitating its suppressive regulatory function toward NFAT activity. […] Statistical significance was calculated using a t-Test for two-samples assuming unequal variances and p-values are as indicated.
In order to determine the mechanism for IRAK-1 involvement, transcription factor reporter assays were performed. In this set of experiments, NFAT reporter activity was determined in the presence of IRAK-1 or IRAK-M, a homologue of IRAK-1 (FIG. 10).

B1: Interleukin-1 Receptor Associated Kinase-1 (protein)
chain: MAGGPGPGEPVVPGAQHFLYEVPPWVMCRFYKVMDALEPADWCQFAALIVRDQTELRLCERSEQRTASVLWPWINRNARVADLVHILTHLQLLRARDIITAWHPPAPVVPPSTAAPRPSSISAGSEAGDWSPRKLQSSASTFLSPAFPGSQTHSESELLQVPLPVSLGPPLPSSAPSSTKSSPESPVSGLQRAHPSPFCWPFCEISQGTCNFSEELRIGEGGFGCVYRAVMRNTTYAVKRLKEEADLEWTMVKQSFLTEVEQLSRFRHPNIVDFAGYCAESGLYCLVYGFLPNGSLEDQLHLQTQACSPLSWPQRLDILLGTARAIQFLHQDSPSLIHGDIKSSNVLLDERLMPKLGDFGLARFSRFAGAKASQSSTVARTSTVRGTLAYLPEEYIKTGRLAVDTDTFSFGVVILETLAGQRAVRTQGAKTKYLKDLIEDEAEEAGVTLKSTQPTLWVGVATDAWAAPIAAQIYKKHLDSRPGPCPPQLGLALAQLACCCMHRRAKKRPPMTQVYKRLEGLQAGPPWELEVAGHGSPSPQENSYMSTTGSAQSGDEPWQPLVVTTRAPAQAAQQLQRSPNQPVESDESVPGLSATLHSWHLTPGSHPSPASFREASCTQGGTTRESSVRSSPGFQPTTMEGSPTGSSSLLSSEPPQIIINPARQKMVQKLALYEEGVLDSLQLLSSGFFPGLDLEPEKSQGPEESDEFQS
Q: B1 was tested. Which “co-immunoprecipitation with NFAT” value (NFAT [1]) did it give?
A: The value was “capable of co-immunoprecipitating with NFAT”.

Q: And the “suppression of NFAT reporter activity” value (NFAT [2]; co-transfection of expression plasmid with NFAT reporter)?
A: The value was “suppression of NFAT by IRAK-1 could be seen”.

Q: And the “reduction of NFAT reporter luciferase activity compared with the control transfection” value (NFAT [2]; co-transfection with NFAT-luciferase reporter plasmid, Hela cells, control adjusted to 100%)?
A: Its value is −80%.
